The text below walks through data of patent publication US20250340890, “DNA […] AS UNIVERSAL INHIBITORS OF SPIKE PROTEIN/HACE2 INTERACTIONS” (Bowling Green State University, published 2025).

Targets include SARS-CoV-2 WT spike S1 (SARS-CoV-2, UniProt P0DTC2 P0DTC2:14-685); PD-L1 (UniProt Q9NZQ7 Q9NZQ7:19-238); Lysozyme (UniProt P00698 P00698:19-147).
Series [1] addresses Bovine serum albumin (BSA) (Bos taurus, UniProt P02769 P02769:25-607).
Series [2] deals with SARS-CoV-2 WT spike S2 domain (SARS-CoV-2, UniProt P0DTC2 P0DTC2:686-1213).
Series [3] has as its target SARS-CoV-2 WT spike S1S2 extracellular domain (SARS-CoV-2, UniProt P0DTC2).

Sequence of Bovine serum albumin (BSA) (P02769 25-607, one chain of several): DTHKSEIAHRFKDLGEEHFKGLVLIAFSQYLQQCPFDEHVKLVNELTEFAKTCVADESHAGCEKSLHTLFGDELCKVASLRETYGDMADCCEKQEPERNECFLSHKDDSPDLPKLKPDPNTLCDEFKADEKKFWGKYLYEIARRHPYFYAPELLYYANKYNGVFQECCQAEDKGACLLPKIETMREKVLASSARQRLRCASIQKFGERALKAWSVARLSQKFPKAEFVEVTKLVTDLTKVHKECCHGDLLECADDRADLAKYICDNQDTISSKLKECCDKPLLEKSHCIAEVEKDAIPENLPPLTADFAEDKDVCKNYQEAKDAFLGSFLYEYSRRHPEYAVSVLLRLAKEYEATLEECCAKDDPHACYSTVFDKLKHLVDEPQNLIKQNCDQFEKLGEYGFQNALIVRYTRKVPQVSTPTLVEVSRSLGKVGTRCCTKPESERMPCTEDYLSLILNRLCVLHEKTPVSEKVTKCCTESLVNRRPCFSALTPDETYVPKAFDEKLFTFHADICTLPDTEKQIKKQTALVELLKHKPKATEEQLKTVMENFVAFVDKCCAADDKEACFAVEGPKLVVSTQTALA
Sequence of PD-L1 (Q9NZQ7 19-238, one chain of several): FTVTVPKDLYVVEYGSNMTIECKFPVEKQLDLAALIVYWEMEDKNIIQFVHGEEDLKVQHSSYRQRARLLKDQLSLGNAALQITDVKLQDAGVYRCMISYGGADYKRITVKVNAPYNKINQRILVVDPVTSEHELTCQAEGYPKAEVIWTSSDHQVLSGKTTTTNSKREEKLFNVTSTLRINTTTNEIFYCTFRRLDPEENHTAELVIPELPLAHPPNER
Sequence of Lysozyme (P00698 19-147, one chain of several): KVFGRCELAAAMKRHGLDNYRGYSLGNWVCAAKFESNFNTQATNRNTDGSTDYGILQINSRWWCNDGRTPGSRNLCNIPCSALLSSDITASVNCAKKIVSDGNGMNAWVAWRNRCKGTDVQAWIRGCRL

B1: S2A2C1 (ssDNA)
DNA: AGGCGGGTTCCTAGACTTGTACTCAGCCT
B1: the binding result (with SARS-CoV-2 WT spike S1; with PD-L1; in the series with Lysozyme; in series [1]) was “no binding” throughout.

B2: A1C1 (ssDNA)
DNA: CGGGACGACGACGGACATCGTGAGAAATGGTCGACCTTGTGTCTGTCGTCCCG
Turning to B2, in series [1], the binding result was “no binding”.

B3: S2A2C3 (ssDNA)
DNA: CAAGGAGCGACCAGAGGCGGGTTCCTAGACTTGTACTCAGCCT
Turning to B3, the binding result in series [2] was “binds”.

B4: S2A2 (ssDNA)
DNA: CAAGGAGCGACCAGAGGCGGGTTCCTAGACTTGTACTCAGCCTTTACAGCTATGCCCTGGCATCCTTCAGCCC
On to B4, for which the binding result in series [3] is listed as “binds”.

B5: S2A1 (ssDNA)
DNA: CAAGGAGCGACCAGAGGGGCGGTTTATCAACAACTCGCTCTGTACACCACTCTTTGTTGGCATCCTTCAGCCC
Regarding B5, in series [3], the binding result is “binds”.

B6: S2A1C1 (ssDNA)
DNA: CAAGGAGCGACCAGAGGGGCGGTTTATCAACAACTCGCTCTGTACACCACTCTTTG
For the molecule B6, the binding result in series [2] is on record as “binds”.
